This experiment concerns the target ribosomal protein uL16 (Escherichia coli (strain MRE600), UniProt P0ADY7 1-136). In words: cryo-EM structure.

B1: initiation factor 2, γ-isoform (natural protein)
chain: not shown
With B1, the binding result is “binds”.

For the origin of these results see doi:10.1101/390674 (bioRxiv, 2018).
